Tests used:
[1] = target: non-mutated human leptin (human) (UniProt P41159); experiment: ELISA, plate-bound leptin receptor-Fc; sample 4, purified recombinant leptin
[2] = target: non-mutated human leptin (human) (UniProt P41159); experiment: ELISA, plate-bound leptin receptor-Fc; sample 8, blood donor serum/plasma CS-2
[3] = target: non-mutated human leptin (human) (UniProt P41159); experiment: ELISA, plate-bound leptin receptor-Fc; sample 9, blood donor serum/plasma DO-2226
[4] = target: non-mutated human leptin (human) (UniProt P41159); experiment: ELISA, plate-bound leptin receptor-Fc; sample 12, blood donor serum/plasma BB-3935
[5] = target: non-mutated human leptin (human) (UniProt P41159); experiment: ELISA, plate-bound leptin receptor-Fc; sample 10, blood donor serum/plasma IDB-883-
[6] = target: non-mutated human leptin (human) (UniProt P41159); experiment: ELISA, plate-bound leptin receptor-Fc; sample 11, blood donor serum/plasma IDB-8960
[7] = target: non-mutated human leptin (human) (UniProt P41159); experiment: receptor-Fc ELISA value divided by anti-leptin antibody ELISA value; WHO standard 2 ng/ml
[8] = target: non-mutated human leptin (human) (UniProt P41159); experiment: receptor-Fc ELISA value divided by anti-leptin antibody ELISA value; WHO standard 6 ng/ml
[9] = target: non-mutated human leptin (human) (UniProt P41159); experiment: ELISA, plate-bound leptin receptor-Fc; sample 6, WHO standard NIBSC 97/594, nominal 2 ng/ml
[10] = target: non-mutated human leptin (human) (UniProt P41159); experiment: ELISA, plate-bound leptin receptor-Fc; sample 7, WHO standard NIBSC 97/594, nominal 6 ng/ml
[11] = target: non-mutated human leptin (human) (UniProt P41159); experiment: receptor-Fc ELISA value divided by anti-leptin antibody ELISA value; sample 1, HEK293 supernatant
[12] = target: non-mutated human leptin (human) (UniProt P41159); experiment: receptor-Fc ELISA value divided by anti-leptin antibody ELISA value; sample 8, blood donor serum/plasma
[13] = target: non-mutated human leptin (human) (UniProt P41159); experiment: receptor-Fc ELISA value divided by anti-leptin antibody ELISA value; sample 9, blood donor serum/plasma
[14] = target: non-mutated human leptin (human) (UniProt P41159); experiment: receptor-Fc ELISA value divided by anti-leptin antibody ELISA value; sample 10, blood donor serum/plasma
[15] = target: non-mutated human leptin (human) (UniProt P41159); experiment: receptor-Fc ELISA value divided by anti-leptin antibody ELISA value; sample 11, blood donor serum/plasma
[16] = target: non-mutated human leptin (human) (UniProt P41159); experiment: receptor-Fc ELISA value divided by anti-leptin antibody ELISA value; sample 12, blood donor serum/plasma
[17] = target: non-mutated human leptin (human) (UniProt P41159); experiment: ELISA, plate-bound leptin receptor-Fc, detection with polyclonal anti-leptin; sample 1, HEK293 supernatant

Chain of UniProt P41159 (P41159 22-167, change not shown): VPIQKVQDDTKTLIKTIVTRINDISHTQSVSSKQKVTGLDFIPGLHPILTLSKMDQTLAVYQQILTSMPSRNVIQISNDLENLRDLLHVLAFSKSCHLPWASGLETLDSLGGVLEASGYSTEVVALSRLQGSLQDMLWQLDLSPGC

Recombinant Human Leptin R Fc Chimera, Catalog Number 389-LR/CF, R & D Systems (amino acid sequence Thr20-Asp839 of the human leptin receptor) (from UniProt P48357 20-839) (Fc fusion)
measured value functional leptin (concentration read from standard curve) [1]: 278 µg/mL
measured value functional leptin (concentration read from standard curve) [2]: 2.81 ng/mL
measured value functional leptin (concentration read from standard curve) [3]: 4.61 ng/mL
measured value functional leptin (concentration read from standard curve) [4]: 34.1 ng/mL
measured value functional leptin (concentration read from standard curve) [5]: 7.25 ng/mL
measured value functional leptin (concentration read from standard curve) [6]: 24 ng/mL
quotient of functional leptin and total leptin [7]: 0.99
quotient of functional leptin and total leptin [8]: 0.99
measured value functional leptin (concentration read from standard curve) [9]: 1.83 ng/mL
measured value functional leptin (concentration read from standard curve) [10]: 6.05 ng/mL
quotient of functional leptin and total leptin [11]: 0.85
quotient of functional leptin and total leptin [12]: 1.14
quotient of functional leptin and total leptin [13]: 0.91
quotient of functional leptin and total leptin [14]: 0.87
quotient of functional leptin and total leptin [15]: 0.96
quotient of functional leptin and total leptin [16]: 0.98
measured value functional leptin (concentration read from standard curve) [17]: 490 ng/mL
